# B1: Casein kinase I isoform alpha (Oryctolagus cuniculus (Rabbit)), P67828 (parent)
# chain: MASSSGSKAEFIVGGKYKLVRKIGSGSFGDIYLAINITNGEEVAVKLESQKARHPQLLYESKLYKILQGGVGIPHIRWYGQEKDYNVLVMDLLGPSLEDLFNFCSRRFTMKTVLMLADQMISRIEYVHTKNFIHRDIKPDNFLMGIGRHCNKLFLIDFGLAKKYRDNRTRQHIPYREDKNLTGTARYASINAHLGIEQSRRDDMESLGYVLMYFNRTSLPWQGLKAATKKQKYEKISEKKMSTPVEVLCKGFPAEFAMYLNYCRGLRFEEAPDYMYLRQLFRILFRTLNHQYDYTFDWTMLKQKAAQQAASSSGQGQQAQTPTGF
# partner: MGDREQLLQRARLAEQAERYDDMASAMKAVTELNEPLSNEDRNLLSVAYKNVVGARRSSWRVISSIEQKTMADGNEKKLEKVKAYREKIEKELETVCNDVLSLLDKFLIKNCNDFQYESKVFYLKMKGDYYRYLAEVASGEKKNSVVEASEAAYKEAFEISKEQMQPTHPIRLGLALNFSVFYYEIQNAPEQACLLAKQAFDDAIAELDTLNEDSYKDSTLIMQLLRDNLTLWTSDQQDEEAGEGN
# Variants of: B1
# Details: with 1433f_human YWHAH
row,Variant,effect of a mutation on the interaction
1,MASSSGSKAEFIVGGKYKLVRKIGSGSFGDIYLAINITNGEEVAVKLESQKARHPQLLYESKLYKILQGGVGIPHIRWYGQEKDYNVLVMDLLGPSLEDLFNFCSRRFTMKTVLMLADQMISRIEYVHTKNFIHRDIKPDNFLMGIGRHCNKLFLIDFGLAKKYRDNRTRQHIPYREDKNLTGTARYASINAHLGIEQSRRDDMESLGYVLMYFNRTSLPWQGLKAATKKQKYEKISEKKMATPVEVLCKGFPAEFAMYLNYCRGLRFEEAPDYMYLRQLFRILFRTLNHQYDYTFDWTMLKQKAAQQAASSSGQGQQAQTPTGF [S242A],disrupting interaction
2,MASSSGSKAEFIVGGKYKLVRKIGSGSFGDIYLAINITNGEEVAVKLESQKARHPQLLYESKLYKILQGGVGIPHIRWYGQEKDYNVLVMDLLGPSLEDLFNFCSRRFTMKTVLMLADQMISRIEYVHTKNFIHRDIKPDNFLMGIGRHCNKLFLIDFGLAKKYRDNRTRQHIPYREDKNLTGTARYASINAHLGIEQSRRDDMESLGYVLMYFNRTALPWQGLKAATKKQKYEKISEKKMSTPVEVLCKGFPAEFAMYLNYCRGLRFEEAPDYMYLRQLFRILFRTLNHQYDYTFDWTMLKQKAAQQAASSSGQGQQAQTPTGF [S218A],disrupting interaction

# Variants of: B1
# Details: with 1433f_human YWHAH
# Remark: another data set of the same source
row,Variant,effect of a mutation on the interaction
1,MASSSGSKAEFIVGGKYKLVRKIGSGSFGDIYLAINITNGEEVAVKLESQKARHPQLLYESKLYKILQGGVGIPHIRWYGQEKDYNVLVMDLLGPSLEDLFNFCSRRFTMKTVLMLADQMISRIEYVHTKNFIHRDIKPDNFLMGIGRHCNKLFLIDFGLAKKYRDNRTRQHIPYREDKNLTGTARYASINAHLGIEQSRRDDMESLGYVLMYFNRTALPWQGLKAATKKQKYEKISEKKMSTPVEVLCKGFPAEFAMYLNYCRGLRFEEAPDYMYLRQLFRILFRTLNHQYDYTFDWTMLKQKAAQQAASSSGQGQQAQTPTGF [S218A],decreasing interaction

# Reference: IntAct's records for PubMed 19860830
